Source: patent publication US20140017168A1

How the values were obtained:
[1] = molecular target: somatostatin receptors on AR42J cells (rat); test: apparent IC50, competition with 111In(DTPA-octreotide) on AR42J cells, 3 h at RT
[2] = molecular target: receptor for bombesin analogues (target not named where the EC50 values are printed) (UniProt P30550); test: assay and target not described at this place
[3] = molecular target: gastrin-releasing peptide receptor on PC-3 cells (UniProt P30550); test: competition with 125I-BBN on PC-3 cells, inhibitor 250 to 2 nM
Sequence of gastrin-releasing peptide receptor on PC-3 cells (P30550 whole entry): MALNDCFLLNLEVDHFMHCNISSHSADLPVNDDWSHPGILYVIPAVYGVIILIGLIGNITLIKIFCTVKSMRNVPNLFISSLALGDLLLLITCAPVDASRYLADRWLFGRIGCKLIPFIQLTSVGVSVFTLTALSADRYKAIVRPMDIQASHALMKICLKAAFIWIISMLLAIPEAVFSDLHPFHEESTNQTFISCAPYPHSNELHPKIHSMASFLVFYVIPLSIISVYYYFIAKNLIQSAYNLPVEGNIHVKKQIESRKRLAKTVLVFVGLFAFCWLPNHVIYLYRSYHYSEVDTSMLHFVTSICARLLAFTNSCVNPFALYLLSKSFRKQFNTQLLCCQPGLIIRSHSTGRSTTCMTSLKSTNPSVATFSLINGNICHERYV

Sequence of somatostatin receptors on AR42J cells (rat) (P30680 whole entry): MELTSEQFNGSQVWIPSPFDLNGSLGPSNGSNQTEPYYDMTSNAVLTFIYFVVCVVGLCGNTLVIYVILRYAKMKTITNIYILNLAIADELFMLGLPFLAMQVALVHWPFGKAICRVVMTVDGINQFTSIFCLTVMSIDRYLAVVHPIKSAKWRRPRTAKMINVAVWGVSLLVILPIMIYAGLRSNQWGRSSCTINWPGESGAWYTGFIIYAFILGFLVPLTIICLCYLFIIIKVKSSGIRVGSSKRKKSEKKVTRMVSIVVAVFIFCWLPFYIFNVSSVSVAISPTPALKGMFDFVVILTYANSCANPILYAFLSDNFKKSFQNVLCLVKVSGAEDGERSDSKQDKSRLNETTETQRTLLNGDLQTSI
Sequence of receptor for bombesin analogues (target not named where the EC50 values are printed) (P30550 whole entry): as the sequence (P30550 whole entry) above

Substance | IC50 [1] [µM] | further results
Al^19F(IMP466), IMP466 = NOTA-D-Phe-Cys-Phe-D-Trp-Lys-Thr-Cys-Throl (peptide) | 0.0036 | –
^125I-Bombesin (Perkin-Elmer) (peptide) | – | EC50 [2]: 0.059 µM
commercially available BBN peptide (BBN positive control) | – | IC50 [3]: 0.0244 µM

Second part, led by results:

IC50 [1] [µM] | Substance | further results
0.013 | ^69Ga(IMP466), IMP466 = NOTA-D-Phe-Cys-Phe-D-Trp-Lys-Thr-Cys-Throl (peptide) | –
0.0063 | ^115In(DTPA-octreotide) (peptide) | –
